In patent US20120207760A1:

How the values were obtained:
Conditions in all cases: remark: other sources report otherwise
[1] = target: recombinant soluble homotrimeric HA of A/Anhui/1/05 - H5N1 (Influenza A virus A/Anhui/1/2005 (H5N1)); test: micro-array; captured IgG, V5-tagged trimeric HA
[2] = target: recombinant soluble homotrimeric HA of A/Hong Kong/156/97 - H5N1 (Influenza A virus A/Hong Kong/156/97 (H5N1)); test: micro-array; captured IgG, V5-tagged trimeric HA
[3] = target: recombinant soluble homotrimeric HA of A/northern shoveler/California/HKWF115/2007 - H6N1 (Influenza A virus A/northern shoveler/California/HKWF115/2007 (H6N1)); test: micro-array; captured IgG, V5-tagged trimeric HA
[4] = target: T1, recombinant homotrimeric HA, A/Indonesia/5/05 H5N1 (Influenza A virus A/Indonesia/5/05 (H5N1)); test: trimeric HA microarray, transfection set 5
[5] = target: T2, recombinant homotrimeric HA, A/California/4/09 H1N1 (Influenza A virus A/California/4/09 (H1N1)); test: trimeric HA microarray, transfection set 5
[6] = target: T3, recombinant homotrimeric HA, A/Japan/305/57 H2N2 (Influenza A virus A/Japan/305/57 (H2N2)); test: trimeric HA microarray, transfection set 5
[7] = target: T4, recombinant homotrimeric HA, A/Wisconsin/67/05 H3N2 (Influenza A virus A/Wisconsin/67/05 (H3N2)); test: trimeric HA microarray, transfection set 5
[8] = target: T5, recombinant homotrimeric HA, A/South Carolina/1/18 H1N1 (Influenza A virus A/South Carolina/1/18 (H1N1)); test: trimeric HA microarray, transfection set 5
[9] = target: recombinant soluble homotrimeric HA of A/northern shoveler/California/HKWF115/07 (Influenza A virus A/northern shoveler/California/HKWF115/2007); test: microarray, BCC supernatant IgG, trimeric HA
[10] = target: T6, recombinant homotrimeric HA, A/Solomon Islands/3/06 H1N1 (Influenza A virus A/Solomon Islands/3/06 (H1N1)); test: trimeric HA microarray, transfection set 5
[11] = target: T7, recombinant homotrimeric HA, A/swine/Ontario/01911-2/99 H4N6 (Influenza A virus A/swine/Ontario/01911-2/99 (H4N6)); test: trimeric HA microarray, transfection set 5
[12] = target: recombinant soluble homotrimeric HA of A/swine/Ontario/01911-2/99 (H4N6) (Influenza A virus A/swine/Ontario/01911-2/99 (H4N6)); test: microarray, BCC supernatant IgG, trimeric HA
[13] = target: T6, recombinant homotrimeric HA, A/Solomon …; test: trimeric HA microarray, transfection set 4
[14] = target: recombinant homotrimeric HA, A/duck/Yangzhou/02/05 H8N4 (Influenza A virus A/duck/Yangzhou/02/2005 (H8N4)); test: trimeric HA microarray, transfection set 4
[15] = target: recombinant homotrimeric HA, A/Vietnam/1203/04 H5N1 (Influenza A virus A/Vietnam/1203/04 (H5N1)); test: trimeric HA microarray, transfection set 4
[16] = target: recombinant homotrimeric HA, A/Egypt/3300-NAMRU3/08 H5N1 (Influenza A virus A/Egypt/3300-NAMRU3/08 (H5N1)); test: trimeric HA microarray, transfection set 4
[17] = target: recombinant homotrimeric HA, A/northern shoveler/California/HKWF115/07 (Influenza A virus A/northern shoveler/California/HKWF115/2007 (H6N1)); test: trimeric HA microarray, transfection set 4
[18] = target: recombinant homotrimeric HA, A/common magpie/Hong Kong/5052/07 H5N1 (Influenza A virus A/common magpie/Hong Kong/5052/07 (H5N1)); test: trimeric HA microarray, transfection set 4
[19] = target: T1, recombinant homotrimeric HA, …; test: trimeric HA microarray, transfection set 4
[20] = target: recombinant homotrimeric HA, A/chicken/Vietnam/NCVD-016/08 H5N1 (Influenza A virus A/chicken/Vietnam/NCVD-016/08 (H5N1)); test: trimeric HA microarray, transfection set 4
[21] = target: T2, recombinant homotrimeric HA, …; test: trimeric HA microarray, transfection set 4
[22] = target: recombinant homotrimeric HA, A/Hong Kong/2108/03 H9N2 (Influenza A virus A/Hong Kong/2108/03 (H9N2)); test: trimeric HA microarray, transfection set 4
[23] = target: T3, recombinant homotrimeric HA, …; test: trimeric HA microarray, transfection set 4
[24] = target: T4, recombinant homotrimeric HA, …; test: trimeric HA microarray, transfection set 4
[25] = target: T5, recombinant homotrimeric HA, A/South …; test: trimeric HA microarray, transfection set 4
[26] = target: recombinant homotrimeric HA, A/Hong Kong/1073/99 H9N2 (Influenza A virus A/Hong Kong/1073/99 (H9N2)); test: trimeric HA microarray, transfection set 4
[27] = target: recombinant soluble homotrimeric HA of A/Egypt/3300-NAMRU3/08 - H5N1 (Influenza A virus A/Egypt/3300-NAMRU3/2008 (H5N1)); test: micro-array; captured IgG, V5-tagged trimeric HA
[28] = target: recombinant soluble homotrimeric HA of A/duck/Yangzhou/02/05 (H8N4) (Influenza A virus A/duck/Yangzhou/02/2005 (H8N4)); test: microarray, BCC supernatant IgG, trimeric HA
[29] = target: recombinant soluble homotrimeric HA of A/Hong Kong/1073/99 - H9N2 (Influenza A virus A/Hong Kong/1073/99 (H9N2)); test: micro-array; captured IgG, V5-tagged trimeric HA
[30] = target: T7, recombinant homotrimeric HA, …; test: trimeric HA microarray, transfection set 4

Binder	Trimeric HA Binding RLU [4]	Trimeric HA Binding RLU [5]	Trimeric HA Binding RLU [6]	Trimeric HA Binding RLU [7]	Trimeric HA Binding RLU [8]	Trimeric HA Binding RLU [10]	Trimeric HA Binding RLU [11]	Trimeric HA Binding RLU [15]	Trimeric HA Binding RLU [21]	Trimeric HA Binding RLU [23]	Trimeric HA Binding RLU [24]	Trimeric HA Binding RLU [25]	other results
TCN-545 (5082_I15) (antibody, V domains shown) VH: QVQLQQWGAGLLKPSETLSLSCAVFGGSFSDYYWTWIRQPPGKGLEWIGEIKHSGRTNYNPSLESRVTISVDTSKNQFSLKLSSVTAADTAIYYCARGTDPDTEGYCRSGSCSAFDFWGQGTLVTVSS VL: EIVLTQSPGTLSLSPGERATLSCRASHFVNYRSLAWYQQTPGQVPRLLIYGASTRATGIPDRFSGSGSGTDFTLTISRLEPEDFAVYFCQQYGGSPRYTFGQGTRLEIK	5270 RLU	818 RLU	1360 RLU	32000 RLU	900 RLU								Trimeric HA Binding: RLU [1]: 4880 RLU; Trimeric HA Binding: RLU [2]: 1560 RLU; Trimeric HA Binding: RLU [3]: 2320 RLU; Trimeric HA Binding: RLU [9]: 1170 RLU
TCN-555 (5246_L16) (antibody, V domains shown) VH: QVQLVQSGAEVKRPGSSVKVSCTASGGIFRKNAISWVRQAPGQGLEWMGGIIAVFNTANYAQKFQNRVKITADESGNTAYMELSSLTSDDTAVYYCASHPKYFYGSGSYPDFWGQGTLVTVSS VL: QSALTQPRSVSGSPGQSITISCTGGSSDIGASNSVSWYQQHPGKAPKLVIFDVTERPSGVPHRFSGSKSGNTASLTVSGLQPDDEADYFCCAYGGKYLVVFGGGTKVTVL	33900 RLU	20200 RLU	16700 RLU	14700 RLU	48000 RLU	44600 RLU	4520 RLU						Trimeric HA Binding: RLU [12]: 1950 RLU
TCN-535 (5246_P19) (antibody, V domains shown) VH: QVQLVQSGSEVKKPGTSVKVSCTASGSVFTNYGISWVRQAPGQGLEWMGGIIPLFGAAKYAQKFQGRVTITADESTKTVYMELSRLTSKDTAIYFCAKAPRVYEYYFDQWGQGTPVTVSS VL: EIVLTQSPGTLSLSPGERATLSCRASQSVSSSQLAWYQQKPGQAPRLIIYGASTRATGIPDRFSGSGSGTDFTLTIGRLEPEDFAVFFCQQYSTSPPTFGQGTKVDFK								25200 RLU	25200 RLU	21500 RLU	4450 RLU	22400 RLU	Trimeric HA Binding RLU [13]: 836 RLU; Trimeric HA Binding RLU [14]: 428 RLU; Trimeric HA Binding RLU [16]: 25300 RLU; Trimeric HA Binding RLU [17]: 18100 RLU; Trimeric HA Binding RLU [18]: 477 RLU; Trimeric HA Binding RLU [19]: 18200 RLU; Trimeric HA Binding RLU [20]: 20900 RLU; Trimeric HA Binding RLU [22]: 18 RLU; Trimeric HA Binding RLU [26]: 21200 RLU
TCN-539 (5056_A08) (antibody, V domains shown) VH: QVQLVESGGGVVQPGRSLRLSCAASEITFITYAMHWVRQAPGKGLEWVALISDDGSNKFYADSVKGRFTISRDNSKNTLYLQMNSLRAEDTAAYYCAREGVYFDSGTYRGYFDYWGQETLVTVSS VL: EIVLTQSPATLSLSPGERATLSCRASQSVSSYLAWYQQKPGQAPRLLIYDASNRATGIPARFSGSGSGTDFTLTISSLEPEDFAVYYCQQRSHWPPITFGQGTRLEIK			2560 RLU	58800 RLU	5330 RLU	871 RLU	6510 RLU						Trimeric HA Binding: RLU [27]: 24300 RLU; Trimeric HA Binding: RLU [28]: 1490 RLU
TCN-536 (5095_N01) (antibody, V domains shown) VH: QVQLQQWGAGLLKPSETLSLTCAVYGGSFSVSGYYWSWIRQPPGRGLEWIGEISHGGSTNYNPSLKSRVTISVDTTKNQFSLRLSSVTAADTAVYYCARGTDPDTEVYCRVGNCAAFDYWGQGSLVTVSS VL: EIILAQSPGTLSLSPGERATLSCRASQFVSTRSLAWYQQRPGQAPRLLIYGASSRATGIPDRFSGSGSGTDFTLTISRLEPEDFAVYYCQHYGYSPRYAFGQGSKVEIK								182 RLU	49 RLU	260 RLU	20600 RLU	39 RLU	Trimeric HA Binding: RLU [29]: 115 RLU; Trimeric HA Binding RLU [30]: 168 RLU
